Drawing on PMC8660880, this text covers stoichiometry N for 1 substance.

As a reminder, the stoichiometry N is the number of molecules, sites or subunits per partner or assembly.

The assay addresses mS105 (Chlamydomonas reinhardtii (endogenous in strain CC-4351)). The assay can be described thus: cryo-EM structure; single-particle reconstruction of the native small subunit (SSU) of the C. reinhardtii mitoribosome isolated from purified mitochondria; Monosome buffer; 5.49 A, focused refinement 4.19 A (body) and 4.47 A (head).

mS105 (natural protein) came in with a stoichiometry N of 3.
